The record followed here is patent publication US20230303685A1.

In test [1] the target is human SIRPα on hSIRPα-expressing cells (human) (UniProt P78324). Description: flow cytometry, stably transfected CHO cells, antibody titrated, labelled anti-rat or anti-mouse IgG, MFI. On the technique in general: A flow cytometer gives signals particle by particle.
The target is the same in test [2]. Description: flow cytometry, stably transfected CHO cells, antibody titrated, labelled anti-human IgG, MFI.

B1: Antibody 11 (antibody, V domains shown)
VH: EVQLVESGGGLVQPGGSLRLSCAASGFTFSSYWMHWVRQAPGKGLVWVSRIHNDGSRTSYADSVKGRFTISRDNAKNTLYLQMSSLRAEDTAVYYCTRDPPPYDILTGYPFDYWGQGTLVTVSS
VL: DIQMTQSPSSVSASVGDRVTITCRASQDISSWLAWFQQKPGKAPKLLIYGASSLQSGVPSRFSGSGSGTDFTLTISSLQPEDFATYYCQEANSFPYTFGQGTKLEIK
One may read the EC50 (read off the curve) as the concentration needed to bring the measured effect to its halfway point. A low value points to an effect from little substance. On to B1, for which the EC50 (read off the curve) in test [1] stood at 0.1 µg/mL.

B2: Antibody 28 (antibody, V domains shown)
VH: QVQLQESGPGLVKPSGTLSLTCAVSGGSISSSNWWSWVRQPPGKGLEWIGEIYHSGSTNYNPSLKSRVTISVDKSKNQFSLKLSSVTAADTAVYYCARRGIWFGVGPWGQGTLVTVSS
VL: DIVMTQSPLSLPVTPGEPASISCRSSQSLLHGNGFNYLDWYLQKPGQSPQLLIYLGSNRASGVPDRFTGSGSGTDFTLKISRVEAEDVGVYYCMQGLQTPRTFGQGTKVEIK
For B2, in test [2], the EC50 (read off the curve) was found to be 0.2 µg/mL.

B3: Antibody 4 (antibody, V domains shown)
VH: QVQLQESGPGLLKPSETLSLTCAVSDYSISSGYYWGWIRQPPGKGLEWIGSIYHSGNTYYNPSLKSRVTILVDTSKNQFSLKLSSVTAADTAVYYCARDKCSTTTCSFDYWGQGTLVTVSS
VL: DIQMTQSPSSLSASVGDRVTITCQASQDFSNYLNWYQQKPGKAPKLLIYAASNLETGVPSRFSGSGSGTDFTFTISSLQPEDIAVYYCQQYDNLPYTFGQGTKLEIK
Turning to B3, the EC50 (read off the curve) in test [1] worked out at 1 µg/mL.
